From patent US20070134249A1 (GENITOPE, published 2007)

What was measured:
Experiment in all cases: ELISA
Set-up in all cases: key to grade: 0 = <0.5 OD, 1 = 0.5-1.0 OD, 4 = 1-4 OD
[1] = target: T1, 857
T1 construct: H5-51 L2-14; also called PIN857
Excerpt: (§1) Before specificity screening, all of the clonal immunogen-positive hybridoma supernatants were re-screened on the immunogen, a non-family member Id protein, and KLH, if animals were immunized with Id protein that has been conjugated KLH. As described above, this screen identifies HC-specific clones but not mAbs against the light chain constant region. Clones identified positive to the immunogen and KLH were […]. Those found positive to the immunogen but not to the non-family member Id protein or KLH were tittered on the immunogen. In addition to normalizing for different binding affinities and concentrations, each hybridoma supernatant was titered on the fully human form of the Id protein used as the immunogen(s) for the V regions. The titer or dilution resulting in an ELISA absorbance of 2.5 to 3 OD after 30 min. incubation time was then used. Hybridoma specificity was determined by screening against available Id proteins expressing the same HV and KV or LV as well as different HV, KV and LV. The final ELISA results are expressed as follows: 0 (<0.5 OD), 1 (0.5-1.0 OD), or 4 (1-4 OD). Positive hybridoma supernatants are categorized according to specificity: anti-Id, anti-constant region (HC, KC or LC), or V region (HV, KV, LV family or family member).
(§2) In general, the fully human Id protein or proteins containing the immunogen V regions were coated onto 96-well ELISA plates at 2.5-5 ug/mL in carbonate buffer pH 9.6 and incubated at 4° C. for up to 14 days. On the day of the ELISA, plates were brought to RT and blocked with Tris-Tween-20, pH 7.6 for 15-60 min. at RT. Following a NaCl and Triton X-100 wash, diluted hybridoma cell culture supernatants were incubated overnight at 4° C. Hybridoma supernatant dilutions ranged from 1:2 to 1:25 and were prepared in PBS with 5% BSA. Plates were washed and incubated with HRP-conjugated goat anti-mouse IgG-specific detecting antibody. A chromogenic substrate (TMB) was used to measure the amount of mouse antibody bound to each well. The reaction was stopped at or before 30 minutes with IN H2SO4 and plates were read immediately. Absorbency readings at 450 nm ranging between 0-4 OD and using Molecular Devices plate reader and SOFTMAX PRO software.

[2] = target: T2, 305
T2 construct: H3-48 L1-40; also called PIN305
Excerpt: as §1, §2

[3] = target: T3, 164
T3 construct: H4-39 L2-14; also called PIN164
Excerpt: as §1, §2

[4] = target: T4, 116
T4 construct: fully human Id protein; also called PIN116
Excerpt: as §1, §2

[5] = target: T5, 762
T5 construct: H3-7 L3-10; also called PIN762
Excerpt: as §1, §2

[6] = target: T6, 551
T6 construct: H3-23 L1-40; also called PIN551
Excerpt: as §1, §2

[7] = target: T7, 552
T7 construct: H1-18 L2-8; also called PIN552
Excerpt: as §1, §2

[8] = target: T8, 196
T8 construct: H4-31 L2-23; also called PIN196
Excerpt: as §1, §2

[9] = target: T9, 796
T9 construct: H3-23 L3-25; also called PIN796
Excerpt: as §1, §2

[10] = target: T10, 1089
T10 construct: H3-73 L2-23; also called PIN1089
Excerpt: as §1, §2

[11] = target: T11, 534
T11 construct: H3-11 L1-47; also called PIN534
Excerpt: as §1, §2

[12] = target: T12, 102
T12 construct: H1-18 L1-44; also called PIN102
Excerpt: as §1, §2

[13] = target: T13, 1167
T13 construct: H3-23 L2-14; also called PIN1167
Excerpt: as §1, §2

[14] = target: T14, 1067
T14 construct: H1-8 L2-23; also called PIN1067
Excerpt: as §1, §2

[15] = target: T15, 1060
T15 construct: H4-39 L2-23; also called PIN1060
Excerpt: as §1, §2

[16] = target: T16, 231
T16 construct: H3-48 L2-14; also called PIN231
Excerpt: as §1, §2

[17] = target: T17, 604
T17 construct: H4-34 L2-8; also called PIN604
Excerpt: as §1, §2

[18] = target: T18, 746
T18 construct: H4-39 L2-8; also called PIN746
Excerpt: as §1, §2

[19] = target: T19, 662
T19 construct: fully human Id protein; also called PIN662
Excerpt: as §1, §2

T4 sequence (VH, as listed by the source, chain 1 of 2): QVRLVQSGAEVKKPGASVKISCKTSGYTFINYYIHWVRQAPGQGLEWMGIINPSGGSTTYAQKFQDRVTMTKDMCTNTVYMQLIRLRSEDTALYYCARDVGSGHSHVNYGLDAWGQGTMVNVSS
T4 sequence (V domain, as listed by the source, chain 2 of 2): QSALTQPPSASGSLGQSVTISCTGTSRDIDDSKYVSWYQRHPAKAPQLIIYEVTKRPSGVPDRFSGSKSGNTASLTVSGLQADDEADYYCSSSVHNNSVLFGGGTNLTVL
T19 sequence (heavy, as listed by the source): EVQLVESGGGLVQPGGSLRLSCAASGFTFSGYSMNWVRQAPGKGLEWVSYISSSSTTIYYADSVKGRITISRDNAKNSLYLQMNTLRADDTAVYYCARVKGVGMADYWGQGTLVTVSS

grade [1]: 4
grade [2]: 4
grade [3]: 4
binding result [4]: no binding
grade [5]: 4
grade [6]: 4
grade [7]: 4
grade [8]: 4
grade [9]: 4
grade [10]: 4
grade [11]: 4
grade [12]: 4
grade [13]: 4
grade [14]: 4
grade [15]: 4
grade [16]: 4
grade [17]: 4
grade [18]: 1
grade [19]: 4
B1: mAb clone 4H11 (antibody, V domains shown)
VH: EVKLVESGGGLVKPGGSLKLSCAASGFAFSNYDMSWVRQTPEKRLEWVATIRSDDSYTYYPDSVKGRFTISRDNARNTLYLQMSSLRSEDTAFYYCARREGNYAMDYWGQGTSVTVSS
VL: DIQMTQSPASLSVSVGETVTITCRASENIYSYLAWYQQKKGKSPQLLVYAATNLGDGVPTRFSGSGSGTQYSLKINSLQSEDFGSYYCQHFWGNPLTFGAGTKLELKR
notes: Mouse hybridoma mAb
